“And” between values parts separate entries of the source, which are not always exact repeats. Identical values can stand only once.
What was measured:
ALK5 ECD = biological target: T1, ALK5 ECD (Homo sapiens, UniProt P36897); assay: BLI
T1 chain: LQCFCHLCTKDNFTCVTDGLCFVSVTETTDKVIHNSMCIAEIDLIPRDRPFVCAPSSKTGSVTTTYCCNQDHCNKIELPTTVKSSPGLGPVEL

ALK1 ECD [1] = biological target: T2, ALK1 ECD (Homo sapiens, UniProt P37023); assay: BLI
ACTR-IIB ECD = biological target: T3, ACTR-IIB ECD (Homo sapiens, UniProt Q13705); assay: BLI
T3 chain: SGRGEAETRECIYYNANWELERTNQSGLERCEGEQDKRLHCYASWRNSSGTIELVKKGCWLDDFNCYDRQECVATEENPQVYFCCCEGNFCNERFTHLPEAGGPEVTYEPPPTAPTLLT

ALK6 ECD = biological target: T4, ALK6 ECD (Homo sapiens, UniProt O00238); assay: BLI
T4 chain: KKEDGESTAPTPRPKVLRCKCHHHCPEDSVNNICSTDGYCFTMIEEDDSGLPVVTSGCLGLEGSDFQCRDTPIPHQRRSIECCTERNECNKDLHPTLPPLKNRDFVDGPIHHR

ALK2/BMPR-II ECD = biological target: T5, ALK2/BMPR-II ECD (Homo sapiens, UniProt Q04771); assay: BLI
T5 chain 1: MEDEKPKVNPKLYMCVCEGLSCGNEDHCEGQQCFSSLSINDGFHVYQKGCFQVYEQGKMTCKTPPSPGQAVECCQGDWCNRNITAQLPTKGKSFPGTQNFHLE
T5 chain 2: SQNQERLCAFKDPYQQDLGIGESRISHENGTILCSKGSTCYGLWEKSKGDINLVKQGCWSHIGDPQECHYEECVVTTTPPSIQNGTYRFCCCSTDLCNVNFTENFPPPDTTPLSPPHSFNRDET

ALK2 ECD = biological target: T6, ALK2 ECD (Homo sapiens, UniProt Q04771); assay: BLI
T6 chain: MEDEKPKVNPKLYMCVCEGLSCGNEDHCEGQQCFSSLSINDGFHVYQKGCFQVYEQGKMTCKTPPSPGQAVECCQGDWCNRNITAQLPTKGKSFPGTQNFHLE

ALK2/ACTR-IIB ECD = biological target: T7, ALK2/ACTR-IIB ECD (Homo sapiens, UniProt Q04771); assay: BLI
T7 chain 1: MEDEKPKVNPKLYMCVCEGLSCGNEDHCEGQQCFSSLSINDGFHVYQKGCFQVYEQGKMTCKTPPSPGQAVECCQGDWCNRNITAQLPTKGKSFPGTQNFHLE
T7 chain 2: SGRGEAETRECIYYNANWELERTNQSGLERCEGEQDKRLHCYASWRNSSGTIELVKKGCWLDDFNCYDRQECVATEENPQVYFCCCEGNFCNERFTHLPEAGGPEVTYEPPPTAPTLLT

BMPR-II ECD = biological target: T8, BMPR-II ECD (Homo sapiens, UniProt Q13873); assay: BLI
T8 chain: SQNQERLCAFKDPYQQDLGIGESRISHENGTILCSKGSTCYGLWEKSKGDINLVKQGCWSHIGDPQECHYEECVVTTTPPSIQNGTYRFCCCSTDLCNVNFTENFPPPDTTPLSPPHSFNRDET

ACTR-IIA ECD = ACTR-IIA ECD (Homo sapiens, UniProt P27037); assay: BLI
Sequence of ACTR-IIA ECD (P27037 20-135): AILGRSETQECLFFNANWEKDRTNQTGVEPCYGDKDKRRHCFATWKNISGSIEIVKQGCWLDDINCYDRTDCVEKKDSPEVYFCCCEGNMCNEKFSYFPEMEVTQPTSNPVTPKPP

ALK3 ECD = biological target: T9, ALK3 ECD (Homo sapiens, UniProt P36894); assay: BLI
T9 chain: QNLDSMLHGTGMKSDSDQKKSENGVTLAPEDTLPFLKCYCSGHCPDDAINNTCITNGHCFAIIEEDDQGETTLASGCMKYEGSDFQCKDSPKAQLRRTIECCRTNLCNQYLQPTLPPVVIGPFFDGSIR

ALK1 ECD [2] = biological target: T2, ALK1 ECD; assay: SPR

T2 sequence (P37023 22-118): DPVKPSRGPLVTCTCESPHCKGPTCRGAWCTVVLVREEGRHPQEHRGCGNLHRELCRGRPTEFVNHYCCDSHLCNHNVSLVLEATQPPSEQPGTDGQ

Binder | Kd (ALK5 ECD) [nM] | Kd (ALK1 ECD [1]) [nM] | Kd (ACTR-IIB ECD) [nM] | Kd (ALK6 ECD) [nM] | Kd (ALK2/BMPR-II ECD) | Kd (ALK2 ECD) [nM] | Kd (ALK2/ACTR-IIB ECD) | Kd (BMPR-II ECD) [nM] | Kd (ACTR-IIA ECD) [nM] | Kd (ALK3 ECD) [nM] | Kd (ALK1 ECD [2]) [nM]
BMP-4 (protein) SPKHHSQRARKKNKNCRRHSLYVDFSDVGWNDWIVAPPGYQAFYCHGDCPFPLADHLNSTNHAIVQTLVNSVNSSIPKACCVPTELSAISMLYLDEYDKVVLKNYQEMVVEGCGCR | 21.9 | 55.4 | 26 | 3.1 | 55.8 nM and 90.7 nM | 10.5 | 103 nM and 88.7 nM | 56 | 21.4 |  | 
BMP-2 (protein) QAKHKQRKRLKSSCKRHPLYVDFSDVGWNDWIVAPPGYHAFYCHGECPFPLADHLNSTNHAIVQTLVNSVNSKIPKACCVPTELSAISMLYLDENEKVVLKNYQDMVVEGCGCR | 5.8 | 13 |  | 0.5 |  |  |  | 5.4 |  | 0.21 | 
BMP-7 (protein) STGSKQRSQNRSKTPKNQEALRMANVAENSSSDQRQACKKHELYVSFRDLGWQDWIIAPEGYAAYYCEGECAFPLNSYMNATNHAIVQTLVHFINPETVPKPCCAPTQLNAISVLYFDDSSNVILKKYRNMVVRACGCH | 22.6 | 23.1 | 7.1 | 15 |  |  |  | 5.5 | 1.3 |  | 
BMP-9 (protein) SAGAGSHCQKTSLRVNFEDIGWDSWIIAPKEYEAYECKGGCFFPLADDVTPTKHAIVQTLVHLKFPTKVGKACCVPTKLSPISVLYKDDMGVPTLKYHYEGMSVAECGCR | 51 | 0.2 | 1.4 |  |  |  |  | 0.8 | 1.7 |  | 0.0134
